Test results as given in PMC2362362 (British Journal of Cancer, 1999).

B1: Ki-4 single-chain variable fragment (scFv), soluble (scFv, V domains shown)
VH: QVKLQESGTELAKPGAAVKMSCKASGYTFTDYWMHWVKQRPGQGLEWIGYINPNTAYTDYNQKFKDKATLTADKSSSTAYMQLRSLTSEDSAVYYCAKKTTQTTWGFPFWGQGTTVTVSS
VL: DIVLTQSPKSMAMSVGERVTLSCKASENVDSFVSWYQQKPGQSPKLLIYGASNRYTGVPDRFAGSGSGRDFTLTISSVQAEDLADYHCGQNYRYPLTFGAGTKLEIK
notes: also called Ki-4 scFv; His-tagged Ki-4 scFv
B2: anti-CD30 monoclonal antibody Ki-4 (antibody, V domains shown)
VH: B1 VH
VL: B1 VL
notes: also called Ki-4 mAb; Ki-4 whole antibody; copies: 2 + 2

Biological target: T1, extracellular domain of the human CD30 receptor fused to the hinge, CH2 and CH3 domain of human IgG1 … (Homo sapiens (Human)., UniProt P28908)
T1 construct: also called recombinant, human sCD30-Fc protein
Experiment: SPR; BIAcore 2000; sCD30-Fc covalently coupled to a CM-5 sensorchip (450 RU, 'low density'); surface saturated by multiple injections of antibody or fragment, flow 20 ul/min; dissociation rates by curve fitting (monovalent for the scFv, bivalent for the mAb)
Conditions: both partners purified

T1 sequence (P28908 19-385): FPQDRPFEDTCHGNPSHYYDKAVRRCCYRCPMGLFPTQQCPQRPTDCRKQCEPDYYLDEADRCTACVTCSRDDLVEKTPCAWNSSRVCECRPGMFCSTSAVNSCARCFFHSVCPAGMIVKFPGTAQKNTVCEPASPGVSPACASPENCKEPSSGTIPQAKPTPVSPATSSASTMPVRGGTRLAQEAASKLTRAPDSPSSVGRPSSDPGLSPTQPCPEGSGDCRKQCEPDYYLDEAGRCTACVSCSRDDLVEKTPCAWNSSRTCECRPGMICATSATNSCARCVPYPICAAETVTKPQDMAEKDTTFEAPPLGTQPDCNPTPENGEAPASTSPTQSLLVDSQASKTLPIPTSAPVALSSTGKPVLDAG

| Binder | koff | t1/2 of the antibody-antigen complex (=ln2/koff) |
| --- | --- | --- |
| B1 | 0.00018 s⁻¹ | 1.07 h |
| B2 | 0.00012 s⁻¹ | 1.6 h |
